Laboratory results from paper PMC6691574.

B1: CD36: S468A (protein)
parent chain: MGCDRNCGLIAGAVIGAVLAVFGGILMPVGDLLIQKTIKKQVVLEEGTIAFKNWVKTGTEVYRQFWIFDVQNPQEVMMNSSNIQVKQRGPYTYRVRFLAKENVTQDAEDNTVSFLQPNGAIFEPSLSVGTEADNFTVLNLAVAAASHIYQNQFVQMILNSLINKSKSSMFQVRTLRELLWGYRDPFLSLVPYPVTTTVGLFYPYNNTADGVYKVFNGKDNISKVAIIDTYKGKRNLSYWESHCDMINGTDAASFPPFVEKSQVLQFFSSDICRSIYAVFESDVNLKGIPVYRFVLPSKAFASPVENPDNYCFCTEKIISKNCTSYGVLDISKCKEGRPVYISLPHFLYASPDVSEPIDGLNPNEEEHRTYLDIEPITGFTLQFAKRLQVNLLVKPSEKIQVLKNLKRNYIVPILWLNETGTIGDEKANMFRSQVTGKINLLGLIEMILLSVGVVMFVAFMISYCACRSKTIK
B2: CD36: T470A (protein)
parent chain: B1 parent chain
B3: CD36: S468A/T470A (protein)
parent chain: B1 parent chain

Assay: fluorescent FA uptake kit, time course, SGC 7901
Conditions: glycan lost; control: wild-type CD36

other: transport activity, decreases:
B1
B2
B3

Assay: Nile red staining after PA, SGC 7901
Conditions: glycan lost; control: wild-type CD36

other: transport activity, decreases:
B1
B2
B3
